Data taken from article PMC5509211 (2017).
No end group written: not given here.

Assays:
[1] = biological target: actin filaments (contractile ring) (Schizosaccharomyces pombe, UniProt P10989); test: live-cell fluorescence titration
[2] = biological target: actin filaments (endocytic patches) (Schizosaccharomyces pombe, UniProt P10989); test: live-cell fluorescence titration

Binder: MGVADLIKKFESISKEE (also: mEGFP fusion) [mEGFP-Lifeact]
- Kd [1]: 6.2 µM
- Kd [2]: 20 µM
